Values joined by “and” are separate entries in the source; they are usually repeats but may differ in a detail not shown here. Equal entries are not always repeated.
Tests used:
unlabeled lysozyme = target: T1, unlabeled lysozyme (Gallus gallus, UniProt P00698); experiment: label-free microscale thermophoresis (NT.LabelFree); type: binding; details: unlabelled protein; buffer not printed in main text for this test
T1 construct: gene LYZ; native hen egg white lysozyme (mature chain, signal peptide removed), unlabelled; source printed for the stock used for labelling
T1 sequence (P00698 19-147): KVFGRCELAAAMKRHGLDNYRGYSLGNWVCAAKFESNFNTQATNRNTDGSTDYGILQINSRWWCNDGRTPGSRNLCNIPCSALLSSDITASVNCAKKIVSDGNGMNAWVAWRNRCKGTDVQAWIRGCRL

[1] = target: T2, Lysozyme isolated from hen egg white, labeled with RED-NHS 2nd generation dye (Gallus gallus (hen egg white), UniProt P00698, RED-NHS 2nd generation dye, amine reactive; degree of labeling ~0.70); experiment: other fluorescence titration; analysis of the absolute (initial) fluorescence of the same Monolith datasets; RED-NHS labeled lysozyme as target, nanobody as titrated ligand; PBS+; triplicates on 40 instruments; means over instruments; analysed centrally with MOAA and PALMIST and by 8 of 40 users; details: both partners purified
T2 construct: lysozyme isolated from hen egg white (ROCHE Cat.No. 10837059001); also called labeled lysozyme; red labeled lysozyme; source: bought: ROCHE Cat.No. 10837059001 (isolated from hen egg white); labeled with the Monolith NT Protein Labeling Kit RED-NHS 2nd Generation
T2 sequence (P00698 19-147): as above

[2] = target: T2, Lysozyme isolated from hen egg white, …; experiment: MST; TRIC analysis of the MST/TRIC time trace; RED-NHS labeled lysozyme as target, nanobody as titrated ligand; PBS+ (10 mM phosphate pH 7.4, 2.7 mM KCl, 137 mM NaCl, 0.005% Tween-20); premium coated capillaries; triplicates on 40 Monolith NT.115/NT.Pico instruments; means over instruments; analysed centrally with MOAA and PALMIST (hot region 0.5-1.5 s) and individually by users; fitted without correction for the …; details: both partners purified
[3] = target: T2, Lysozyme isolated from hen egg white, …; experiment: as above; details: both partners purified; remark: listed apart in the source

| Molecule | Kd (unlabeled lysozyme) | Kd [1] | Kd [2] | Kd [3] |
| --- | --- | --- | --- | --- |
| CC(=O)N[C@H]1[C@H](O[C@H]2[C@H](O)[C@@H](NC(C)=O)C(O)O[C@@H]2CO)O[C@H](CO)[C@@H](O[C@@H]2O[C@H](CO)[C@@H](O)[C@H](O)[C@H]2NC(C)=O)[C@@H]1O (stereo partly shown) [NAG3] | ~4000 nM |  |  |  |
| anti-lysozyme nanobody: Cab-Lys3 with T101 of the CDR3 loop mutated to serine (VHH, parent chain is the VHH Cab-Lys3 (De Genst et al. 2002), with T101 in the CDR3 loop changed to serine; 14.2 kDa; also called NB; VHH; source: T7-Express E. coli (pET-22B), purified (Profinity IMAC, Superdex-75)) VHH: DVQLQASGGGSVQAGGSLRLSCAASGYTIGPYCMGWFRQAPGKEREGVAAINMGGGITYYADSVKGRFTISQDNAKNTVYLLMNSLEPEDTAIYYCAADSSIYASYYECGHGLSTGGYGYDSWGQGTQVTVSS |  | 256 nM and 259 nM and 272 nM | 1170 nM | 111 nM and 119 nM and 76 nM |

From PMC8519905, “Reproducibility and accuracy of microscale thermophoresis in the NanoTemper Monolith: a multi laboratory benchmark study” (European Biophysics Journal, 2021)
